According to PMC2268108:

Columns and labels:
[1] = target: canine kidney Na,K-ATPase (αβ protomer), erythrosin-labelled (dog (endogenous in kidney)) (UniProt P50997); test: time-resolved phosphorescence anisotropy
[2] = target: Na/K pump α1 subunit-CFP fusion; test: FRET or BRET

canine kidney Na,K-ATPase (αβ protomer), erythrosin-labelled (from UniProt P50997;P06583) (complex)
stoichiometry N [1]: 2

phospholemman-citrineYFP fusion (natural protein)
increase of donor fluorescence on acceptor photobleaching [2]: 23.8%
